{
  "source": "patent US11453711B2",
  "about": "“Fusion proteins of GLP-1 and GDF15 and conjugates thereof” (BEIJING QL BIOPHARMACEUTICAL CO., LTD., priority 2019, dated 2022)",
  "experiment": "Body weight and food intake in C57BL/6 mice, fusion protein conjugates, 30 nmol/kg daily 10 days",
  "format": "in vivo",
  "experimental": "10 week old male C57BL/6 mice were injected everyday subcutaneously with 15 nmol/kg of the fusion protein conjugates (i.e., MLC002, MLC 004, MLC 005, MLC 006, MLC 007, MLC 008, and MLC 009) for 14 days. Food intake and body weight were measured daily and five animals were used for each treatment group. Body weight (BW) was monitored for each individual animal, but food intake for each group animals was measured together. Day 1 and Day 14 are first day and last day of molecule dosage. % BW loss=100*(BW on Day n-BW on Day 1)/(BW on Day 1). Cumulative food intake on Day n represents sum of food intake from Day 1 to Day n. Data are indicated as mean values and standard error (SEM) or pooled values. Statistical analysis was performed by One-way ANOVA. Body weight reduction on Day 11 is calculated by −1*(% BW loss−% BW loss of vehicle group); Cumulative food intake reduction is calculated by −100*(cumulative food intake-cumulative food intake of vehicle)/cumulative food intake of vehicle.\nData were calculated in the same way as described above. Day 1 and Day 10 are first day and last day of the administration.\nMLC014 was used as a negative control. MLC014 has an amino acid sequence of SEQ ID NO: 261, which contains a linker fused to the N terminal of GDF15, with a CRM conjugated to the lysine residue in the linker. Tirzepatide was also used as a control.",
  "data": [
    {"molecule": "Tirzepatide [reference compound]", "values": [
      {"measurement": "Body weight reduction at 30 nmol/kg (% reduction compared to vehicle)(Day11)", "value": 10.5, "unit": "%"},
      {"measurement": "Cumulative food intake reduction at 30 nmol/kg (% reduction compared to vehicle)(Day11)", "value": 23.0, "unit": "%"}
    ]},
    {"molecule": "MLC045: fusion polypeptide SEQ ID NO: 328 conjugated with Moiety A at 1K and 55K of Linker (conjugate, Moiety A conjugated at linker K1, K55) HGEGTFTSDVSSYLEEQAAREFIAWLVRGGGKQEPGAQPGQEPGAQPGQEPGAQPGQEPGAQPGQEPGAQPGQEPGAQPGAQPGAKPGAQPGAQPGAQPGAQPGAQPGAQPARQGDHCPLGPGRCCRLHTVRASLEDLGWADWVLSPREVQVTMCIGACPSQFRAANLHAQIKTSLHRLRPDTVPAPCCVPASYNPMVLIQRTDTGVSLQTYDDLLARDCHCI", "values": [
      {"measurement": "Body weight reduction at 30 nmol/kg (% reduction compared to vehicle)(Day11)", "value": 20.6, "unit": "%"},
      {"measurement": "Cumulative food intake reduction at 30 nmol/kg (% reduction compared to vehicle)(Day11)", "value": 27.8, "unit": "%"}
    ]},
    {"molecule": "MLC080: fusion polypeptide SEQ ID NO: 374 conjugated with Moiety B at 35C of Linker (conjugate, Moiety B conjugated at linker C35) HGEGTFTSDVSSYLEEQAAKEFIAWLVRGGGGQEPGAQPGQEPGAQPGQEPGAQPGQEPGAQPGQCPGAQPGQEPGAQPGQEPGAQPGAQPGAQPGAQPGAQPGAQPGAQPARQGDHCPLGPGRCCRLHTVRASLEDLGWADWVLSPREVQVTMCIGACPSQFRAANLHAQIKTSLHRLKPDTVPAPCCVPASYNPMVLIQKTDTGVSLQTYDDLLAKDCHCI", "values": [
      {"measurement": "Body weight reduction at 30 nmol/kg (% reduction compared to vehicle)(Day11)", "value": 17.2, "unit": "%"},
      {"measurement": "Cumulative food intake reduction at 30 nmol/kg (% reduction compared to vehicle)(Day11)", "value": 33.2, "unit": "%"}
    ]},
    {"molecule": "MLC043: fusion polypeptide SEQ ID NO: 326 conjugated with Moiety A at 26K of GLP-1 (conjugate, Moiety A conjugated at K26) HGEGTFTSDVSSYLEEQAAKEFIAWLVRGGGGQEPGAQPGQEPGAQPGQEPGAQPGQEPGAQPGQEPGAQPGQEPGAQPGAQPGAQPGAQPARQGDHCPLGPGRCCRLHTVRASLEDLGWADWVLSPREVQVTMCIGACPSQFRAANLHAQIKTSLHRLRPDTVPAPCCVPASYNPMVLIQRTDTGVSLQTYDDLLARDCHCI", "values": [
      {"measurement": "Body weight reduction at 30 nmol/kg (% reduction compared to vehicle)(Day11)", "value": 17.4, "unit": "%"},
      {"measurement": "Cumulative food intake reduction at 30 nmol/kg (% reduction compared to vehicle)(Day11)", "value": 30.5, "unit": "%"}
    ]},
    {"molecule": "MLC030: fusion polypeptide SEQ ID NO: 277 conjugated with Moiety A at 15K of Linker (conjugate, Moiety A conjugated at linker K15) HGEGTFTSDVSSYLEEQAAREFIAWLVRGGGGQEPGQEPGQEPGQKPGQEPGQEPGQEPGQEPGAQPGAQPGAQPGAQPGAQPGAQPGAQPGAQPGAQPGAQPGAQPGAQPARQGDHCPLGPGRCCRLHTVRASLEDLGWADWVLSPREVQVTMCIGACPSQFRAANLHAQIKTSLHRLRPDTVPAPCCVPASYNPMVLIQRTDTGVSLQTYDDLLARDCHCI", "values": [
      {"measurement": "Body weight reduction at 30 nmol/kg (% reduction compared to vehicle)(Day11)", "value": 22.0, "unit": "%"},
      {"measurement": "Cumulative food intake reduction at 30 nmol/kg (% reduction compared to vehicle)(Day11)", "value": 29.1, "unit": "%"}
    ]},
    {"molecule": "MLC012: fusion polypeptide SEQ ID NO: 259 conjugated with Moiety A at 12K of Linker (conjugate, Moiety A conjugated at linker K12) HGEGTFTSDVSSYLEEQAAREFIAWLVRGGGGQEPGQEPGQEKGQEPGQEPGQEPGQEPGQEPGQEPGQEPARQGDHCPLGPGRCCRLHTVRASLEDLGWADWVLSPREVQVTMCIGACPSQFRAANLHAQIKTSLHRLRPDTVPAPCCVPASYNPMVLIQRTDTGVSLQTYDDLLARDCHCI", "values": [
      {"measurement": "Body weight reduction at 30 nmol/kg (% reduction compared to vehicle)(Day11)", "value": 30.6, "unit": "%"},
      {"measurement": "Cumulative food intake reduction at 30 nmol/kg (% reduction compared to vehicle)(Day11)", "value": 37.2, "unit": "%"}
    ]},
    {"molecule": "MLC027: fusion polypeptide SEQ ID NO: 274 conjugated with Moiety A at 55K of Linker (conjugate, Moiety A conjugated at linker K55) HGEGTFTSDVSSYLEEQAAREFIAWLVRGGGGAQPGAQPGAQPGAQPGAQPGAQPGAQPGAQPGQEPGAQPGQEPGAQPGQEPGQKPGQEPGQEPGQEPGQEPGAQPGAQPARQGDHCPLGPGRCCRLHTVRASLEDLGWADWVLSPREVQVTMCIGACPSQFRAANLHAQIKTSLHRLRPDTVPAPCCVPASYNPMVLIQRTDTGVSLQTYDDLLARDCHCI", "values": [
      {"measurement": "Body weight reduction at 30 nmol/kg (% reduction compared to vehicle)(Day11)", "value": 19.1, "unit": "%"},
      {"measurement": "Cumulative food intake reduction at 30 nmol/kg (% reduction compared to vehicle)(Day11)", "value": 40.7, "unit": "%"}
    ]},
    {"molecule": "MLC018: fusion polypeptide SEQ ID NO: 265 conjugated with Moiety A at 52K of Linker (conjugate, Moiety A conjugated at linker K52) HGEGTFTSDVSSYLEEQAAREFIAWLVRGGGGQEPGAQPGQEPGAQPGQEPGAQPGQEPGAQPGQEPGAQPGQEPGAQPGQEKGAQPGQEPGAQPGQEPGAQPGQEPGAQPARQGDHCPLGPGRCCRLHTVRASLEDLGWADWVLSPREVQVTMCIGACPSQFRAANLHAQIKTSLHRLRPDTVPAPCCVPASYNPMVLIQRTDTGVSLQTYDDLLARDCHCI", "values": [
      {"measurement": "Body weight reduction at 30 nmol/kg (% reduction compared to vehicle)(Day11)", "value": 23.5, "unit": "%"},
      {"measurement": "Cumulative food intake reduction at 30 nmol/kg (% reduction compared to vehicle)(Day11)", "value": 48.1, "unit": "%"}
    ]},
    {"molecule": "MLC103: fusion polypeptide SEQ ID NO: 390 conjugated with Moiety A at 71K of Linker (conjugate, Moiety A conjugated at linker Lys71) HGEGTFTSDVSSYLEEQAAREFIAWLVRGGGGQEPGAQPGQEPGAQPGQEPGAQPGQEPGAQPGQEPGAQPGQEPGAQPGAQPGAQPGAQPGAQPGAQPGAKPGAQPGAQPARQGDHCPLGPGRCCRLHTVRASLEDLGWADWVLSPREVQVTMCIGACPSQFRAANLHAQIKTSLHRLRPDTVPAPCCVPASYNPMVLIQRTDTGVSLQTYDDLLARDCHCI", "values": [
      {"measurement": "Body weight reduction at 30 nmol/kg (% reduction compared to vehicle)(Day11)", "value": 23.3, "unit": "%"},
      {"measurement": "Cumulative food intake reduction at 30 nmol/kg (% reduction compared to vehicle)(Day11)", "value": 36.2, "unit": "%"}
    ]},
    {"molecule": "MLC046: fusion polypeptide SEQ ID NO: 329 conjugated with Moiety A at 60K of linker (conjugate, Moiety A conjugated at linker K60) HGEGTFTSDVSSYLEEQAAREFIAWLVRGGGGQEPGAQPGQEPGAQPGQEPGAQPGQEPGAQPGQEPGAQPGQEPGAQPGAQPGAQPGAQKGAQPGAQPGAQPGAQPGAQPARQGDHCPLGPGRCCRLHTVRASLEDLGWADWVLSPREVQVTMCIGACPSQFRAANLHAQIKTSLHRLRPDTVPAPCCVPASYNPMVLIQRTDTGVSLQTYDDLLARDCHCI", "values": [
      {"measurement": "Body weight reduction at 30 nmol/kg (% reduction compared to vehicle)(Day11)", "value": 24.6, "unit": "%"},
      {"measurement": "Cumulative food intake reduction at 30 nmol/kg (% reduction compared to vehicle)(Day11)", "value": 41.4, "unit": "%"}
    ]},
    {"molecule": "MLC064: fusion polypeptide SEQ ID NO: 359 conjugated with Moiety A at 51K of Linker (conjugate, Moiety A conjugated at linker K51) HGEGTFTSDVSSYLEEQAAREFIAWLVRGGGGQEPGAQPGQEPGAQPGQEPGAQPGQEPGAQPGQEPGAQPGQEPGAQPGAKPGAQPGAQPGAQPGAQPGAQPGAQPGAQPARQGDHCPLGPGRCCRLHTVRASLEDLGWADWVLSPREVQVTMCIGACPSQFRAANLHAQIKTSLHRLRPDTVPAPCCVPASYNPMVLIQRTDTGVSLQTYDDLLARDCHCI", "values": [
      {"measurement": "Body weight reduction at 30 nmol/kg (% reduction compared to vehicle)(Day11)", "value": 24.0, "unit": "%"},
      {"measurement": "Cumulative food intake reduction at 30 nmol/kg (% reduction compared to vehicle)(Day11)", "value": 43.6, "unit": "%"}
    ]},
    {"molecule": "MLC104: fusion polypeptide SEQ ID NO: 391 conjugated with Moiety A at 76K of Linker (conjugate, Moiety A conjugated at linker Lys76) HGEGTFTSDVSSYLEEQAAREFIAWLVRGGGGQEPGAQPGQEPGAQPGQEPGAQPGQEPGAQPGQEPGAQPGQEPGAQPGAQPGAQPGAQPGAQPGAQPGAQPGAQKGAQPARQGDHCPLGPGRCCRLHTVRASLEDLGWADWVLSPREVQVTMCIGACPSQFRAANLHAQIKTSLHRLRPDTVPAPCCVPASYNPMVLIQRTDTGVSLQTYDDLLARDCHCI", "values": [
      {"measurement": "Body weight reduction at 30 nmol/kg (% reduction compared to vehicle)(Day11)", "value": 22.7, "unit": "%"},
      {"measurement": "Cumulative food intake reduction at 30 nmol/kg (% reduction compared to vehicle)(Day11)", "value": 29.4, "unit": "%"}
    ]},
    {"molecule": "MLC014: negative control, SEQ ID NO: 261: linker fused to N terminal of GDF15, CRM conjugated to lysine in the linker; GDF15 derivative (conjugate, CRM conjugated to linker lysine, GDF15 derivative) SEPATSGQEKGQEPGQEPGQEPGQEPGQEPGAQPGAQPARQGDHCPLGPGRCCRLHTVRASLEDLGWADWVLSPREVQVTMCIGACPSQFRAANLHAQIKTSLHRLRPDTVPAPCCVPASYNPMVLIQRTDTGVSLQTYDDLLARDCHCI", "values": [
      {"measurement": "Body weight reduction at 30 nmol/kg (% reduction compared to vehicle)(Day11)", "value": 9.5, "unit": "%"},
      {"measurement": "Cumulative food intake reduction at 30 nmol/kg (% reduction compared to vehicle)(Day11)", "value": 27.3, "unit": "%"}
    ]}
  ]
}
